From the Human Domainome abundance scans (Beltran et al. 2025)

B1: Intersectin-1, residues 909 to 971; numbered along this chain, Q15811 (parent)
chain: QGEKVEGLQAQALYPWRAKKDNHLNFNKNDVITVLEQQDMWWFGEVQGQKGWFPKSYVKLISG
B2: Ventral anterior homeobox 1, residues 102 to 157; numbered along this chain, Q5SQQ9 (parent)
chain: RTRTSFTAEQLYRLEMEFQRCQYVVGRERTELARQLNLSETQVKVWFQNRRTKQKK

Variants of: B1
Assay: abundance fitness (aPCA) (normalised: wild type 0, dead -1); higher = more abundant; growth selection in yeast, the domain comes from the species named
Settings: Homo sapiens

Abundance fitness of substitutions, site by site:
Q1: K -0.496; E -0.335; G -0.083; C -0.06

Variants of: B2
Assay: as above
Settings: Homo sapiens

Abundance fitness: each site, then its substitutions
T52: R -0.249; V -0.014; W -0.316; C -0.165; N -0.037; I -0.358; G 0.137; M 0.194; L -0.141; D 0.154; E 0.139; Y -0.137; A -0.11; K 0.091; P -0.558; H -0.279; Q -0.145; F -0.285
L38: T -0.411; C -0.186; K -0.773; Q -0.91; M -0.112; D -0.818; F -0.72; R -0.576; H -0.854; A -0.253; W -0.861; P -1.02; S -0.321; V 0.027; I -0.307; G -0.822
Q48: W -0.619; E -0.193; D -0.11; S -0.111; Y -0.298; A -0.167; I -0.284; M -0.122; R -0.172; T -0.076; G -0.314; K 0.142; L -0.051; C -0.051; V -0.115; H -0.505
V43: F -0.765; P -0.723; Q -0.817; M -0.838; L -0.166; C -0.508; A -0.679; S -0.561; D -0.691; R -0.793; W -0.871
Q54: L -0.045; P 0.013; W -0.187; K 0.144; N -0.202; Y -0.317; G 0.005; V -0.017; S -0.125; F -0.284; T -0.332; A 0.018; I -0.191; C -0.252; H -0.149; E 0.11; R -0.237
R50: M -0.034; Q -0.098; T -0.392; G -0.832; A -0.163; I -1.09; E 0.009; S -0.451; H -0.624; V -0.943; L -0.925; N -0.424; Y -0.285; W -0.929; K -0.041; P -1.02
K53: G -0.037; L 0.183; C 0.202; I -0.02; H -0.226; R -0.088; S 0.161; V 0.137; D 0.209; M -0.103; Y 0.292; F 0.174; Q 0.115; N 0.199; A 0.044; W -0.04; E 0.186; T 0.197
T41: S 0.006; M 0.095; F -0.129; R -0.336; N -0.127; G 0.03; P -0.152; D 0.105; V -0.104; C 0.164; I -0.5; Q 0.227; A 0.032; K -0.381; W -0.12; Y -0.2; H -0.027; E 0.106; L 0.024
Q42: E 0.183; G -0.603; P -0.824; R -0.223; A 0.021; M -0.252; V -0.153; S -0.364; F -0.266; I 0.007; K -0.473; D 0.028; L -0.137; C -0.563; W -0.397; Y 0.053; N -0.257; T 0.163
L36: V -0.173; Y -0.858; W -0.696
E40: P -0.318; I -0.557; G -0.413; W -0.736; Q -0.507; K -0.676; D -0.128; H -1.01; A -0.215; S -0.283; M -0.852; L -0.711; C -0.226; Y -0.712; V -0.315; R -0.57
N37: S -0.239; E -0.033; L -0.307; W -0.605; F -0.183; D -0.049; T -0.254; Q 0.06; C -0.037; M -0.536; G -0.04; A -0.211; V -0.464; K -0.092; R -0.134
K55: Y -0.199; V 0.119; S -0.072; D 0.305; L 0.128; P 0.061; F -0.229; W -0.105; I -0.238; R -0.187; A 0.086; H -0.149; N 0.081; G 0.043; C -0.091; M -0.288; E 0.238; Q 0.29
W46: L -0.717; M -0.919; S -0.627; K -1.11; G -0.778; C -0.909; Q -0.958; T -0.922; F -0.406; I -0.807; R -0.844; V -0.63
S39: F -0.435; D 0.264; V -0.488; C -0.266; T -0.218; L -0.591; R -0.417; E -0.115; W -0.959; Q -0.313; Y -0.649; I -1.08; N 0.063; H -0.334; G -0.375; P 0.033; M -0.595; K -0.25
K44: P -0.94; Y -0.271; L -0.175; H -0.26; E 0.048; N 0.002; W -0.167; G -0.049; A 0.038; S 0.106; R -0.22; C -0.069; F -0.464; D 0.129; Q -0.091; V -0.032; M -0.079
V45: P -0.545; M -0.148; Q -0.061; F -0.03; R -0.156; N -0.248; H -0.021; I -0.3; S 0.158; A 0.02; W 0.015; Y -0.046; L 0.083; T 0.126; K -0.258; D 0.185; G -0.159
R51: M -0.333; V -0.319; H -0.038; A -0.325; G -0.16; F -0.2; Y -0.091; Q 0.049; W -0.243; I 0.068; K -0.365; C -0.08; E -0.309; N -0.117; S -0.201; D -0.14
K56: P 0.143; Q -0.167; S 0.135; N 0.151; R -0.127; I 0.003; Y -0.039; C 0.148; L -0.205; E 0.12; G 0.324; H -0.159; V 0.005; M -0.17; A -0.291; W 0.078
N49: C -0.283; M -0.442; V -0.1; T 0.072; I -0.069; E 0.297; G -0.047; S -0.277; L -0.046; D -0.019; K -0.022; F -0.609; Q -0.038; H -0.358; P -0.929; R -0.26
F47: Q -0.767; M -0.228; C -0.743; R -0.873; S -0.762; E -1.04; A -1.02; Y -0.376; D -0.674; G -0.976; H -0.754; T -0.792; P -0.836; K -0.885; W -0.651; V -0.787; I -0.663
